We go through four molecules from paper PMC11551953, “Probing Electrostatic and Hydrophobic Associative Interactions in Cells” (The Journal of Physical Chemistry. B, 2024).

One assay has as its target GFP(ESE)4. The experiment in a line: other fluorescence titration; probe (1 μM) with BSA titrated up to 100 mg/mL (2 mM) in a 96-well plate; ratio of excitation at 405 nm/488 nm, emission 520 nm; 10 mM NaPi, 100 mM KCl, pH 7.4; room temperature; fitted to a Hill function; KD of BSA (+92e) with GFP(EEE)4 called apparent.
The target of assay [1] is cationic and hydrophobic probes. Described as above.
The target of another assay is GFP(ESS)4. Described as above.
For another assay, the target named is GFP(EEE)4. The description is as above.
The target of another assay is GFP(KLL)4. Described as above.
Assay [2] deals with T1, wtBSA(-17e), bovine serum albumin (bovine, UniProt P02769 25-607).
T1 construct: bovine serum albumin, wild type; also called wtBSA (−18e); BSA(-18e); source: bought: Sigma-Aldrich; further purified by repeated concentration on an Amicon 10 kD cutoff filter
The experiment in a line: other fluorescence titration; BSA titrated to 1 uM probe (His-tag removed) in a 96-well plate; excitation ratio 405 nm/488 nm at 520 nm emission; 10 mM NaPi, 100 mM KCl, pH 7.4, room temperature; ratio against BSA concentration fitted to a Hill function (k = KD, n = Hill coefficient); errors are errors in the fits. To be noted: both partners purified.

Where no end group is shown, it is not given here.

T1 sequence (P02769 25-607): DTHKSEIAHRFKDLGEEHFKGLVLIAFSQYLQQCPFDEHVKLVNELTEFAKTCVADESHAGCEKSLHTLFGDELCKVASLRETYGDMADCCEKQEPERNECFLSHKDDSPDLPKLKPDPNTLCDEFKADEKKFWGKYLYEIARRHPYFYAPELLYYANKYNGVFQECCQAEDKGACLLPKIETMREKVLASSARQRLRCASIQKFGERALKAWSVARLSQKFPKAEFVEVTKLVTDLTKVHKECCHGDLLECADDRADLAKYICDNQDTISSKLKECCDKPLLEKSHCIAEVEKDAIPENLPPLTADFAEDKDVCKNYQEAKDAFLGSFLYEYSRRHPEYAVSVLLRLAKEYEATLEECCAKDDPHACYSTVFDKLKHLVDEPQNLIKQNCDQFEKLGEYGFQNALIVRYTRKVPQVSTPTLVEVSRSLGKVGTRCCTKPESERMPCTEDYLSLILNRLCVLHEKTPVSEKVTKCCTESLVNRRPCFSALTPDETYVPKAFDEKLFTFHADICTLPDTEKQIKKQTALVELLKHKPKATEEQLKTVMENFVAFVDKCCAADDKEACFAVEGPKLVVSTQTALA
bovine serum albumin (BSA), wild type, sequence (P02769 25-607): as above

With “bovine serum albumin (BSA), wild type (from UniProt P02769 25-607) (natural protein)”, the Kd with GFP(ESE)4 was greater than 1000 µM; in assay [1], 100 to 200 µM; with GFP(ESS)4, greater than 1000 µM; with GFP(EEE)4 it was greater than 1000 µM; with GFP(KLL)4 it was 100 to 200 µM.

On to KLLKLLKLLKLL (other, also: fused to cpGFP reporter, not in chain) [GFP(KLL)4], for which the Kd in assay [2] was 110 µM.

Regarding KLKKLKKLKKLK (other, also: fused to cpGFP reporter, not in chain) [GFP(KLK)4], the Kd in assay [2] was 220 µM.

In the case of KKKKKKKKKKKK (other, also: fused to cpGFP reporter, not in chain) [GFP(KKK)4], the Kd in assay [2] came out at 170 µM.
